The experiment deals with T1, purified, oxidized GlgB pre-alkylated with iodoacetamide (Mycobacterium tuberculosis H37Rv, UniProt P9WN45 1-731, free cysteines C95 and C658 alkylated with iodoacetamide; C193 and C617 in an intra-molecular disulfide bond (oxidized)).
T1 construct: GlgB (Rv1326c), Mycobacterium tuberculosis; recombinant, about 85 kDa on SDS-PAGE; also called pre-alkylated oxidized GlgB; pre-alkylated GlgB
T1 sequence: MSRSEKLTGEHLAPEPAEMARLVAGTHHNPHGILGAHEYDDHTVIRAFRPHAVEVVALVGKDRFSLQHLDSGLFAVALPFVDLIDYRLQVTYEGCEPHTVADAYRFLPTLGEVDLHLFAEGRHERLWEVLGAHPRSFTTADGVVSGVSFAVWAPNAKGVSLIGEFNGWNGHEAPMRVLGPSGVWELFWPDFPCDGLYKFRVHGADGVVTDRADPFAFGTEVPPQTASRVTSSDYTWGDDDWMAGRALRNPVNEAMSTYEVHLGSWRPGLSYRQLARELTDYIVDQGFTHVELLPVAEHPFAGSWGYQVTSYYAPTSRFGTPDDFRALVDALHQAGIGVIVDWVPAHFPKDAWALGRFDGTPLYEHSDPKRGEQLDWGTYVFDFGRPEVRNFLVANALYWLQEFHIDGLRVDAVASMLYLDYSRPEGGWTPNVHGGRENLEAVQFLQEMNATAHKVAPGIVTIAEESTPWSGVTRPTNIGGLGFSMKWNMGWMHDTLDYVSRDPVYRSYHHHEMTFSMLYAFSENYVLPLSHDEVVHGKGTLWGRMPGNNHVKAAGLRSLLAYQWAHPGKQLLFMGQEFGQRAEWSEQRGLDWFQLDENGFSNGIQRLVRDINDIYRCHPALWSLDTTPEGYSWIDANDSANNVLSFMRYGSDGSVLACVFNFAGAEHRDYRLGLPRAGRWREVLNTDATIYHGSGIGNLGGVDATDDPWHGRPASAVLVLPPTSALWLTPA
As to the kind of experiment: […]; 50 mM Tris.HCl pH 8.0, 100 mM NaCl, 0.05% Triton X-100, 2 mM EDTA, 10 mM MgCl2, 25°C; […]. The settings on record: both partners purified.

B1: WhiB1C40S (natural protein)
chain: MDWRHKAVCRDEDPELFFPVGNSGPALAQIADAKLVCNRSPVTTECLSWALNTGQDSGVWGGMSEDERRALKRRNARTKARTGV
notes: also called C40S mutant of WhiB1
Take B1: the binding result is “binds”.

The record behind these values is article PMC2631452, “Redox biology of Mycobacterium tuberculosis H37Rv: protein-protein interaction between GlgB and WhiB1 involves exchange of thiol-disulfide” (BMC Biochemistry, 2009).
